{"source": "paper PMC8257661", "molecular_target": "JUNV L protein VNN(1177–1179)AAA (Junin virus (JUNV))", "assay": "MST"}
{"binder": "Junin virus (JUNV) Z protein (natural protein) MGNCNGASKSNQPDSSRVTQPAAEFRRVAHSSLYGRYNCKCCWFADTNLITCNDHYLCLRCHQVMLRNSDLCNICWKPLPTTITVPVEPTAPPP", "values": [{"measurement": "Kd", "result": 914, "unit": "nM"}]}
